Assay results as given in patent US20240010736A1.

Biological target: human thrombopoietin receptor (hTPOR, genetic name MPL), on cells (human) (UniProt P40238)
Assay: cell-based or functional assay

- EC50 of cell proliferation of BaF3/MPL cells: 1.3 ng/mL
Substance: recombinant human thrombopoietin (rhTPO) (from UniProt P40225 22-353) (ligand)
